Assay: soluble on expression in E. coli; label from the status in PepcDB or PDB records

Sequence	soluble on expression in E. coli
MLLSLYIPPGRPLSDVMTLLRQEYSITDNIKLKRTRQAVKRALSAAMDRLQMLTSTPPNGLVLFCGEDMSTGKFECFMFSPPEPIRVFYYRTDKRFITDFLEDMVEDNNAIGIIIVERDQATIGLLKGARLEVLKELEGFVPGKHKMGGQSQRRYERIIEQMVDEFFKKVGEEASNLLVPLAEKGVLKGVIVAGPGLAKQEFVEGNYLDYRLKKILAPELVDVAYQGLQGLKEAVMKAEKVVEAQMYRDAVNAMEEFKLHLAKGTGMIVYGEKDVEAALEMGAVKTLLIHESREDLEEWVEKAKSSGAQVIVVPESLAEAEWFLKTFGGLAGILRFRISTV	soluble
MGHHHHHHSHMTVHIKVYSDYVCPFCFVGKAAFEEAIKGKDVEVEWMPFELRPSPSPQLDPVNDPSKQYMWQTSIQPMAEKLGVEINFPNVSPHPYTDLAFEGFHFAKEYNKGHEYNTRVFQAFFQEDQNIGDIDILTKLAEEVGLDGASFKSALETRTYQDVQRQALKHAYEEADITAVPTFIIGDTVIPGAAGKDVFEKAISDEQKKK	not soluble
MSYDRVKDFDLPELAVHLQPHGAVMIDRKSMFYFRLSGRGAQLAFLLSKNKNLHKTARIWEIMKKEEMSADQLKEELSAHPFTEAWTEGLLDQPLHVSGSLDSYLPISCTLQLTNACNLSCSFCYASSGKPYPEELSSEQWILVMQKLAAHGVADITLTGGEAKLIKGFKELVVVASSLFTNVNVFSNGLNWRDEEVELLSHLGNVSVQISIDGMDNTHDQLRGRKGGFKESMNTIKKLSEANIPVIVAMTINESNADEVSDVVEQCANAGAFIFRAGKTLSVGRATEGFKALDIDFEEMVQIQLREARHKWGDRLNIIDWEHEESSFTTDFCTPGYLAWYIRADGYVTPCQLEDLPLGHILEDSMADIGSPARLLQLKCEAKNCKCIGKIELSEPDLPFQKEVKAGIQE	not soluble
MKLTLEEGTSLVGYVRNVIKQYLKGEEPDIQKYPDKFNNVFGVFVSLHTHPEHDLRGCIGIPEPTMSLIDAIKETSISAAVHDPRFQPLKHSELKNTIIEVSVLTPPEDVEVEDSMEYLEKLEVGRDGLIIEFGPYRGLLLPQVATEYNWDTKQFLSNLCLKAGLPTTAWIEYDVKIKSFQAQVFEELIPNGPVVEKSTYTGCLEHHHHHH	soluble
MSLQAHCEEFRVCAMCRVLRVNRSGYYAWLCSPNSERAKEDDRLLGLIKHHWLASGSVYGHRKITTDLRDLGERCSRHRVHRLMRTEGLRAQVGYGRKPRFHGGMQCKAAANLLDRQFDVTEPDTAWASDFTFIRTHEGWMYLAVVIDLFSRQVVGWAMRDRADTELVVQAVLSAVWRRKPNTGCLVHSDQGSVYTSDDWRSFLASHGLVCSMSRRGNCHDNAPVESFFGLLKRERIRRRTYPTKDAARAEVFDYIEMFYNPNRRHGSTGDLSPVEFERRYAQRGSEGHHHHHH	not soluble
MQYFDVARILTTHGLHGEVKVNVITDFPEDRFAEGMQLELKDDIDRVLTIKKSRPFKQFWLLQFDEITDIDEAEKLRGKILVISEKDRGELPDGVYYYKDIFDCGVIDNETGKRLGKITDIQSPGANDIWLVHEDNGKEYWIPNIADVVKKIDIADKKVYVELMEGLRDEDLEHHHHHH	soluble
MLRHLGQLSVAHRGSGLHDAYVVNPAQQLDPELAPPPVVYVLETSYVALLLKNPEDVGYQLARRHDYCFALAPHLCILYSRHRVCERVKHHHSHPPPATCSS	soluble
MGSDKIHHHHHHMIISDVLYGEFEVDQVVEELILSKSVQRLKGIHQTGASYLVNKEWNVTRFDHSVGVMLLVKKLGGSVEEQIAGLLHDVSHTAFSHVVDYVFDNRNESYHEEIFSSVVKHSEIPAILAKYGYNYEEILLDDSKWTLLERSAPELCADRVDYTLRDMYTYGYISLEEAHSFLEDVIEVNGKMVLQNIEMAEWFTETYYKEVIDFFMQPMNSYGNDMLAKTLKLALHKKVIHADDFLLEDDELISKLQQCSDPEVHALVSKVHPNVKVKEDRNDYDLYQNNKVRLIDPSLLREGEVVPSSVVSENIRKMSEIAYEKAVRGMYVKVVSD	not soluble
MQHAKIFFVIASVKFLMILSIHNYTQMSKTCKLRTVARKTVMEFEGVEDFIVPFVNYTKRFMVAPDKKLISCTLRKSMSQLAENIMCLLYDEQQYFANSQSLNDTWKDERKCEHDRSYLNPSETLLNDTDTVRFAFIRDPFQRFISFYLDKCVREQKCYNCGNNMTCVLKNFYWGLKKVQRRWDGREQPEYVEIHAAPLSWNCDFYKDLSKWQLIPIGSDKTERSSAITQTEKILRKQRVNETLVDMVVDGMKDGDTDHSTYKSAHRLEAERQIREDPYIREMLHKIYYFDYVVFPFNRDSLDLKFQDTSCTIPLP	not soluble
MNMEEITPVDILLQLVKMGKVDPWNIDIVDLTEKYIKMLREMQELDLRISARAILAASILVRMKSEALLRGEEEENKRGEEEKIKVDVDPLVPPLRRVERYYTLDDLIEALMDALEEAEKRKPKKKKKVEIDEEIFVVDDFRVDIEKYVEELYKVVKKIYEKTKTPIKFWDLVPDVEPKIIARTFLYLLFLENMGRVEMIQEEPFGEILVVPV	soluble
MGSDKIHHHHHHMTSAIDKNSQLEAQAWELLEESVIFYQGKPIGTVAAHDPESDALNYDQCFLRDFVPSALVFLMYGKAEIVRNFLVETLKLQSHEKQIDCFEPGAGLMPASFKVHFNGNEEFLVADFGEQAIARVPPIDSCMWWILLLRAYEKATGDLSLARQPDFQAGIKLILDLCLVHRFSMYPTMLVPDGAFMIDRRMGVYEHPLEIQVLFYASLRAASELLLPDGDGDSYLGKVNRRLGSLKYHIRNYYWLDLKRLGEIYRYKDNEFGKEIVNKFNINSESIPSWLTEWLPETGGYLAGNLGPGRIDFRFFALGNLMAILTSLASEKESQSIMNLFVQRWQDLIGYMPVKICFPALEGLEWRIVTGCDSKNRAWSYHNGGNWPVLLWLFASAAQKAGRTELAQAAIAIAERRLLKDKFPEYYDGNNGRLIGKEARINQTWSIAGLLTAKKFVENPDYLELISFAEGLEVPGCSL	not soluble
MGSDKIHHHHHHMRVLGLILAGGKSDRLWPLTKVRASAAVPVFGKYRAIDFTLSNMVNSGIRKVGILTQYNPRSLMDHLGSGKEWDLDRKSGGLFILQPYVGPNREVWYRGTADAIFQNMTILRRGEEDHVLIGSGDHIYKMIYRDLFNYHLKKGADITLVVKELDETYNLSEYGIVQLDDDMRVVEIEEKPAHPKGNIAFLGVYFMNKELLKELLYATVPQGKYDLLLDIVIPNLDRLKVYAYRFDGYWRNVKKGIKEYYRINMDILKKEVRDELFYRNGKVYTKLKDLPPPKFTTTAVVENSLIADGSIVSGTVRNSVIFRNVRIKVGAVVENSIIMENTVVEEGAVLRNVILDKNCIVREGRVIEGDTELPVFEKRAVL	not soluble
FIFLALLGAAVAFPVDDDDKIVGGYTCGANTVPYQVSLNSGYHFCGGSLINSQWVVSAAHCYKSGIQVRLGEDNINVVEGNEQFISASKSIVHPSYNSNTLNNDIMLIKLKSAASLNSRVASISLPTSCASAGTQCLISGWGNTKSSGTSYPDVLKCLKAPILSDSSCKSAYPGQITSNMFCAGYLEGGKDSCQGDSGGPVVCSGKLQGIVSWGSGCAQKNKPGVYTKVCNYVSWIKQTIASN	soluble
SQEIVAGELERCFLAMPESVLPIVTMEERNDLCRRAGHLSGFTHTASLESSLGGTVTFLLNRNFIRIQTSTVGEVFMRILPFSDSSSVICVVTTVLHPVADSRIDFYTTEWKPLKTDRFWQQPRIEDFFLPHTDRQSYAYQAIYASLTPSYMQVSLSEESDTLSIRQTVTETLAEEEKPLAAIFLSPEPLVYRWQSGRFVRQVR	soluble
MYQDLIRNELNEAAETLANFLKDDANIHAIQRAAVLLADSFKAGGKVLSCGNGGSHCDAMHFAEELTGRYRENRPGYPAIAISDVSHISCVGNDFGFNDIFSRYVEAVGREGDVLLGISTSGNSANVIKAIAAAREKGMKVITLTGKDGGKMAGTADIEIRVPHFGYADRIQEIHIKVIHILIQLIEKEMVK	soluble
MGSDKIHHHHHHMAKFKIEIDSETCLGYKECGLCVSACEESIIVPDEKTGKVKVDKTREINCDGLGACLDVCPVGALKITSESGFSCGGHSGNPCPGSAVKSFNRSEQRSEMLQNKETESELLNWPVQLHLLNPNASYFKNADLIIAADCVPFAYPDFHNNLLKGKVLAIACPKLDDTKDYMLKIRQIVEKNNIKNVTVAIMTVPCCSGLYSLVNRALDGLDVNITKKVISLDGKLMD	not soluble
MIDSQGWYRLARKVPSPHCDVRHDSEDISLLVVHNISLPPGQFGGPYIEQFFLGELDANQHSFFKVIAKMRVSAHCVIRRDGEVVQFVPFHLRAWHAGVSSFAGRAKCNDYSIGIELEGSDFVPYTDAQYQALTELTQALMVRYPHITLPRITGHQYIAPLRKTDPGLVFDWRRFRAGLKS	not soluble
MDIKHEMIYREDDVLLVKSEPQLHSPCATGSNGLPAGAGSNLLCASNGLVTTLASGSSLNGLTNNVPSNGLSSSGPFSSIGGGVSASKRQRTDDWLSSPSGNVPPLTPSPGPPSHPYTVISNGYSSPMSSGSYDPYSPNGKIGREDLSPSSLNGYSADSCDSKKKKGPTPRQQEELCLVCGDRASGYHYNALTCEGCKGFFRRSITKNAVYQCKYGNNCEIDMYMRRKCQECRLKKCLSVGMRPECVVPEVQCAVKRKEKKAQKEKDKPNSSTNGSPDVIKVEPELSDSEKTLCNGSKGISPEQEELIHRLVYFQNEYEHPSEEDVKRIINQPMDGEDQCDVRFRHITEITILTVQLIVEFAKRLPGFDKLLREDQIALLKACSSEVMMFRMARRYDVQTDSILFVNNQPYSRDSYNLAGMGETIEDLLHFCRTMYSMRVDNAEYALLTAIVIFSERPALIEGWKVEKIQEIYLEALRAYVDNRRKPKPGTIFAKLLSVLTELRTLGNQNSEMCFSLKLKNKKLPPFLAEIWDVDLKT	soluble
MAMSNMTYNNVFDHAYEMLKENIRYDDIRDTDDLHDAIHMAADNAVPHYYADIFSVMASEGIDLEFEDSGLMPDTKDVIRILQARIYEQLTIDLWEDAEDLLNEYLEEVEEYEEDEE	soluble
MGSDKIHHHHHHMILEALQYAATRAVTPKEFRPHVRYSVNLWARANRCAKAWAEHENNSRQFVLQSAKKLKQRRTAVVLGSGLLRDVPHDALVAMFDTVVMVDLVHLASVQAKLRLNAKKNVRIANRDLSGFDDLLAGRPAEPLDFLRRVPYLDFVVSANLLSQIGTGAQHRLEREKIANVPGDLLPKLIQTHLDALAGLPCKVCLVTDTAFDVIGKDGSVQQHEDLLHGIEIASPAAAWDWPLAPFGEESRDYRIVHHVIAREMT	not soluble
MSLRGGAQALECYSCVQKADDGCSPNKMKTVKCAPGVDVCTEAVGAVETIHGQFSMAVRGCGSGLPGKNDRGLDLHGLLAFIQLQQCAQDRCNAKLNLTSRALDPAGNESAYPPNGVECYSCVGLSREACQGTSPPVVSCYNASDHVYKGCFDGNVTLTAANVTVSLPVRGCVQDEFCTRDGVTGPGFTMSGSCCQGSRCNSDLRNKTYFSPREGHHHHHH	not soluble
MAHHHHHHMNEAAPFCVAPQTWQGGLARYPVSQSHVWNNNIILQPEDIDVEVFNAMSQVESQYNKNEISVEDFEMLQLTFCLFTVNQSCYDLIPNGREIRVTQANAFEFFQRVHAAYDNMKQRPALNQPTQSNHRPRLRTSGTRLRLTGQDTDSLEWIRWTAQNNPAALAFHPDEPLRWAVVPRSRDFMIRVQPEGENTFVDPDHLTLFLDMLAVLLTEIERAISVFGYYPPNCVSAAPVECADEYSIYTSHTTRATRLPFPSQRVNSRGFSALHKFPMPVTAAAAAAAAAATEQNRRTVRRASSADLENQRALCSPTHDTGGLLAPFQEWNV	not soluble
MRVRIVGAPSLLVGVISDTHDNLALARRAGEIFARERVEAVIHLGDYVAPFTLAELLGVVGGKAVFYGVFGNNDGERLGLSRVAGGFGASLLDPPATVSIGGRRLLLLHGFGSPENTVELVDALASSGRWDAVLYGHTHKARVERVGGSLVLNPGDGGGSLEKPSAAILDLESMEARLVSLEGAAALEHHHHHH	not soluble
